Results reported in patent US20190134169A1.

Biological target: mouse Notch1 on CD4+ T cells (mouse) (UniProt Q01705)
Experiment: cell-based or functional assay

UniProt Q01705, sequence (Q01705 19-2531): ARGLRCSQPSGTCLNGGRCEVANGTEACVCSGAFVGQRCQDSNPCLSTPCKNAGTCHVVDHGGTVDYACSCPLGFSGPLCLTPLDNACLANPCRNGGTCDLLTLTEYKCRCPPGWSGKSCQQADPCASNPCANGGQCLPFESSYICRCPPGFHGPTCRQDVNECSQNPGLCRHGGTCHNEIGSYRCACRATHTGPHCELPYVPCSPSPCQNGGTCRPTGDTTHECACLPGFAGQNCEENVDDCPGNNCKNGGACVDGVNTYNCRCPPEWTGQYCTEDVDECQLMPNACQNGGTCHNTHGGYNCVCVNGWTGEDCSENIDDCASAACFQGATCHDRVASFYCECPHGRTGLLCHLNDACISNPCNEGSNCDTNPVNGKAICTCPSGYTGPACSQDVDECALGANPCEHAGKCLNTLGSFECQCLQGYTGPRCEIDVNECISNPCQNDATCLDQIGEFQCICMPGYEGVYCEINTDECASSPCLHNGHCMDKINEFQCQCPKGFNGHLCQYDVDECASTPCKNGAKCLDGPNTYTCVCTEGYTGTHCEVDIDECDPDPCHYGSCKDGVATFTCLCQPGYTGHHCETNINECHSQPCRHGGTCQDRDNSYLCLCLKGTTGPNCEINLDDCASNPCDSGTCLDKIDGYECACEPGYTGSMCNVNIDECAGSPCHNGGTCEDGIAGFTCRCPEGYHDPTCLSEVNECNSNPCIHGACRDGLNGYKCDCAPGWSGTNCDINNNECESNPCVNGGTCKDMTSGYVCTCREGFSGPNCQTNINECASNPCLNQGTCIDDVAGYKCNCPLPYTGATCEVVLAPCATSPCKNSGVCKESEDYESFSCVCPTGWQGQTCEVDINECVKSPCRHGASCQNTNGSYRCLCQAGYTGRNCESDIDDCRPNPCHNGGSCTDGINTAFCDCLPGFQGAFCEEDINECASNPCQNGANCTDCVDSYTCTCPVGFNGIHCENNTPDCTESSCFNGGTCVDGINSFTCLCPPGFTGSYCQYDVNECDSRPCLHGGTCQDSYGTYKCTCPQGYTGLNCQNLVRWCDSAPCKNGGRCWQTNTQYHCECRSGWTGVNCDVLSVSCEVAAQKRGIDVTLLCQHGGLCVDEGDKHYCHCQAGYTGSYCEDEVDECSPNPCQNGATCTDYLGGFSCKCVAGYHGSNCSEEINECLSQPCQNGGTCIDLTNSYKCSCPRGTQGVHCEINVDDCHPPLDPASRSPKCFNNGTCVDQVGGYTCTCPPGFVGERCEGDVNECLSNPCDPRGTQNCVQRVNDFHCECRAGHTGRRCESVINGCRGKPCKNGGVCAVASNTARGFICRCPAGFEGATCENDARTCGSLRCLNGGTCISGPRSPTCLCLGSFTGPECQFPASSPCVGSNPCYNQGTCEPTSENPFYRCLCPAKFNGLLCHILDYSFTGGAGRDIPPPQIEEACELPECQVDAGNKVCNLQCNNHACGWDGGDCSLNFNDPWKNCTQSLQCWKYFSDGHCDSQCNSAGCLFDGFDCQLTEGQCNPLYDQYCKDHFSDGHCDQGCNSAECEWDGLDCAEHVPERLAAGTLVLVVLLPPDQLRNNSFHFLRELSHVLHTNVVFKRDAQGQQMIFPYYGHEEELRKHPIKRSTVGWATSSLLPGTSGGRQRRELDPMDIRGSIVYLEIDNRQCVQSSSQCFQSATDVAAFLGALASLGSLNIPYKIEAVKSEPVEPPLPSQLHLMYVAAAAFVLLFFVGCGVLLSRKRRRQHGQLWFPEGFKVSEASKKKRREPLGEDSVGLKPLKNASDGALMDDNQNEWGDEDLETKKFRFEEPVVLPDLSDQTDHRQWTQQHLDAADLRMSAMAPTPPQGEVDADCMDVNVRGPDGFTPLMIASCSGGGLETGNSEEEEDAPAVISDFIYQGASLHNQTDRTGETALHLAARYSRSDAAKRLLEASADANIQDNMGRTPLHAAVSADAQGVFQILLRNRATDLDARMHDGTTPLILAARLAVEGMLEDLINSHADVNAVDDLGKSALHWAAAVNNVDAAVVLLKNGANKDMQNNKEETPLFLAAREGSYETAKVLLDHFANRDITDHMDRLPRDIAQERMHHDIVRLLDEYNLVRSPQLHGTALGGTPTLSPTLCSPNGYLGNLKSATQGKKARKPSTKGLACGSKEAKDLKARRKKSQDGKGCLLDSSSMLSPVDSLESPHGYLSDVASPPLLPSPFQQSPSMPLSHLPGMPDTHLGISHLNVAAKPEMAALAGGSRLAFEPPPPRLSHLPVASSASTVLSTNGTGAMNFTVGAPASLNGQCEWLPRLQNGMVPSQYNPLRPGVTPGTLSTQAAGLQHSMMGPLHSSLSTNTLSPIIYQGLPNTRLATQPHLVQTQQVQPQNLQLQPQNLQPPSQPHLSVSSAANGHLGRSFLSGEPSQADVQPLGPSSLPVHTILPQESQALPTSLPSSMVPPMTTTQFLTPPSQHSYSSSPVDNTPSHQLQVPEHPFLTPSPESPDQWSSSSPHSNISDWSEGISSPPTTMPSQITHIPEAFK

- percentage of DLL4hiDC-activated CD4+ T cells with high cleaved intracellular Notch (ICN): 61%
Substance: mouse delta-like ligand 4 (DLL4) on the surface of DLL4hiDCs (from UniProt Q9JI71 27-686)
